Earlier results as cited in article PMC7662479.

Biological target: Angiopoietin-2 (Homo sapiens) (UniProt O15123)
UniProt O15123, sequence (O15123 19-496): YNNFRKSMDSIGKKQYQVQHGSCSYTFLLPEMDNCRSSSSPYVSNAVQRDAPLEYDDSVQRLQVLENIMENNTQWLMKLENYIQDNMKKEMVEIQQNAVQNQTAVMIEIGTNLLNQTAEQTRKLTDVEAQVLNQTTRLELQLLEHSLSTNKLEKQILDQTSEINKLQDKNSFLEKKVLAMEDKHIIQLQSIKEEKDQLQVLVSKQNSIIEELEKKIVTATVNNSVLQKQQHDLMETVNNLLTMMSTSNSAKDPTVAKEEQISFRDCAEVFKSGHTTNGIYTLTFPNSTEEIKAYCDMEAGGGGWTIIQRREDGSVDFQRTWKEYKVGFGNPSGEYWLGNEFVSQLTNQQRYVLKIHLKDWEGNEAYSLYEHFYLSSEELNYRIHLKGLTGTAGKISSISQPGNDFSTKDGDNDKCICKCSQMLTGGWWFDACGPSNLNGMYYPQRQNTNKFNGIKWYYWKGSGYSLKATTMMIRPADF

Kd: 0.024 nM
Substance: nesvacumab
